Assay results taken from paper PMC2900198.

Legend:
[1] = biological target: Grass carp reovirus (GCRV) turret protein VP1 (grass carp reovirus (GCRV)); test: cryo-EM structure
[2] = biological target: Grass carp reovirus (GCRV) coat protein VP5 (grass carp reovirus (GCRV)); test: cryo-EM structure

Grass carp reovirus (GCRV) turret protein VP1 (natural protein)
stoichiometry N [1]: 5

Grass carp reovirus (GCRV) coat protein VP5 (natural protein)
stoichiometry N [2]: 3
